Measured values reported in the supplement of paper PMC11811203.

B1: THAP1; numbered along this chain (parent)
chain: MVQSCSAYGCKNRYDKDKPVSFHKFPLTRPSLCKEWEAAVRRKNFKPTKYSSICSEHFTPDCFKRECNNKLLKENAVPTIFLCTEPHDKKEDLLEPQEQLPPPPLPPPVSQVDAAIGLLMPPLQTPVNLSVFCDHNYTVEDTMHQRKRIHQLEQQVEKLRKKLKTAQQRCRRQERQLEKLKEVVHFQKEKDDVSERGYVILPNDYFEIVEVPA

Variants of: B1
Test: THAP1 transcriptional activity (GFP+/GFP- enrichment relative to wild-type constructs) (ratio to WT); higher = more THAP1 activity (PSMB5 reporter activation)
Conditions: with PSMB5 promoter-GFP reporter
Protocol: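 Deep mutational scan of human THAP1. Site-saturation single amino acid variant library (residues 2-213) was expressed by lentivirus at MOI ~0.3 in THAP1-knockout HEK-293T cells carrying an endogenous PSMB5 promoter-GFP knock-in reporter. Five days post-transduction, BFP+ cells were FACS-sorted into GFP dim and GFP bright populations and variants were counted by Illumina sequencing. Activity is the GFP-bright/GFP-dim read fold change, mean of 2 replicates, divided by the mean fold change of wild-type (synonymous) constructs in the same screen pool; WT = 1.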

| Variant | THAP1 transcriptional activity |
| --- | --- |
| A38E | 0.41 |
| A38N | 1.08 |
| A38W | 0.234 |
| A38K | 1.34 |
| A38D | 1 |
| A38F | 0.511 |
| A38C | 0.377 |
| A38T | 0.773 |
| A38M | 0.788 |
| A38P | 0.09 |
| A38Q | 0.891 |
| A38H | 0.797 |
| A38S | 0.593 |
| A38G | 0.417 |
| A38V | 0.684 |
| A38R | 1.14 |
| A38I | 0.735 |
| A39E | 0.168 |
| A39D | 0.172 |
| A39C | 0.272 |
| S31H | 0.565 |
| S31Q | 0.998 |
| S31R | 1.01 |
| S31G | 1.17 |

| Variant | THAP1 transcriptional activity |
| --- | --- |
| S31P | 0.204 |
| S31A | 1.03 |
| S31Y | 0.535 |
| S31F | 0.363 |
| S31N | 0.574 |
| S31C | 0.206 |
| S31D | 1.43 |
| S31M | 0.6 |
| S31K | 1.13 |
| S31E | 1.31 |
| S31L | 1.21 |
| S31T | 1.19 |
| S31I | 0.728 |
| S31V | 0.895 |
| T28M | 0.3 |
| T28G | 0.843 |
| T28A | 0.664 |
| T28K | 1.42 |
| T28R | 1.03 |
| T28F | 0.194 |
| T28I | 0.198 |
| T28L | 0.612 |
| T28D | 0.202 |
| T28E | 0.172 |

| Variant | THAP1 transcriptional activity |
| --- | --- |
| T28P | 0.103 |
| T28S | 3.39 |
| T28Y | 0.137 |
| T28H | 0.391 |
| T28W | 0.188 |
| T28V | 0.231 |
| T28Q | 0.651 |
| T28N | 0.889 |
| T28C | 0.495 |
| P26Y | 0.208 |
| P26R | 0.098 |
| P26E | 0.157 |
| P26A | 0.13 |
| P26D | 0.0858 |
| P26V | 0.127 |
| P26C | 0.106 |
| P26T | 0.0945 |
| P26L | 0.104 |
| P26N | 0.147 |
| P26G | 0.0891 |
| P26F | 0.0724 |
| P26H | 0.0688 |
| P26I | 0.178 |
| P26W | 0.0853 |

| Variant | THAP1 transcriptional activity |
| --- | --- |
| P26Q | 0.222 |
| P26K | 0.155 |
| P26S | 0.0994 |
| L27H | 0.0857 |
| L27Y | 0.304 |
| L27K | 0.111 |
| L27E | 0.0928 |
| L27R | 0.23 |
| L27M | 0.41 |
| L27V | 0.488 |
| L27A | 0.142 |
| L27F | 0.503 |
| L27W | 0.263 |
| L27D | 0.111 |
| L27Q | 0.235 |
| L27C | 0.14 |
| L27T | 0.31 |
| L27N | 0.0759 |
| L27S | 0.183 |
| L27P | 0.103 |
| L27I | 0.729 |
| L27G | 0.0873 |
| K34S | 0.646 |
| K34R | 0.841 |

| Variant | THAP1 transcriptional activity |
| --- | --- |
| K34P | 0.0748 |
| K34C | 0.284 |
| K34E | 0.59 |
| K34Q | 0.971 |
| K34L | 0.613 |
| K34T | 0.337 |
| K34A | 0.749 |
| K34F | 0.281 |
| K34Y | 0.316 |
| K34M | 0.397 |
| K34H | 0.459 |
| K34N | 0.391 |
| K34G | 0.217 |
| K34I | 0.528 |
| K34W | 0.233 |
| K34D | 0.207 |
| K34V | 0.529 |
| R29I | 0.134 |
| R29K | 0.357 |
| R29F | 0.154 |
| R29Q | 0.36 |
| R29C | 0.137 |
| R29G | 0.131 |
| R29N | 0.536 |

| Variant | THAP1 transcriptional activity |
| --- | --- |
| R29D | 0.187 |
| R29V | 0.177 |
| R29M | 0.162 |
| R29E | 0.127 |
| R29H | 0.211 |
| R29W | 0.129 |
| R29Y | 0.118 |
| R29L | 0.0833 |
| R29T | 0.12 |
| R29P | 0.135 |
| R29S | 0.134 |
| R29A | 0.122 |
| W36I | 0.0405 |
| W36E | 0.13 |
| W36M | 0.182 |
| W36S | 0.197 |
| W36G | 0.0718 |
| W36V | 0.138 |
| W36Y | 0.178 |
| W36R | 0.107 |
| W36D | 0.159 |
| W36A | 0.0783 |
| W36F | 0.221 |
| W36C | 0.248 |

| Variant | THAP1 transcriptional activity |
| --- | --- |
| W36T | 0.143 |
| W36P | 0.167 |
| W36Q | 0.18 |
| W36N | 0.101 |
| W36L | 0.338 |
| W36H | 0.187 |
| W36K | 0.123 |
| F25G | 0.182 |
| F25A | 0.123 |
| F25E | 0.148 |
| F25P | 0.105 |
| F25H | 0.115 |
| F25N | 0.108 |
| F25V | 0.0907 |
| F25C | 0.125 |
| F25Q | 0.0935 |
| F25I | 0.145 |
| F25S | 0.0861 |
| F25T | 0.0714 |
| F25Y | 0.203 |
| F25D | 0.123 |
| F25W | 0.156 |
| F25R | 0.106 |
| F25K | 0.0509 |

| Variant | THAP1 transcriptional activity |
| --- | --- |
| F25L | 0.117 |
| F25M | 0.131 |
| F22L | 0.117 |
| F22Q | 0.121 |
| F22T | 0.126 |
| F22M | 0.0987 |
| F22Y | 0.288 |
| F22E | 0.0853 |
| F22A | 0.115 |
| F22S | 0.0454 |
| F22W | 0.125 |
| F22P | 0.132 |
| F22V | 0.115 |
| F22H | 0.12 |
| F22R | 0.0771 |
| F22C | 0.0658 |
| F22N | 0.0832 |
| F22D | 0.0567 |
| F22I | 0.178 |
| F22G | 0.0652 |
| F22K | 0.0858 |
| S21T | 0.174 |
| S21M | 0.182 |
| S21I | 0.128 |

| Variant | THAP1 transcriptional activity |
| --- | --- |
| S21H | 0.0793 |
| S21Q | 0.176 |
| S21V | 0.0819 |
| S21K | 0.0427 |
| S21N | 0.152 |
| S21W | 0.115 |
| S21G | 0.164 |
| S21R | 0.131 |
| S21P | 0.0702 |
| S21Y | 0.109 |
| S21L | 0.0984 |
| C33W | 0.11 |
| C33Y | 0.162 |
| C33E | 0.0749 |
| C33S | 0.242 |
| C33Q | 0.193 |
| C33H | 0.173 |
| C33A | 0.499 |
| C33R | 0.15 |
| C33N | 0.177 |
| C33T | 0.142 |
| C33F | 0.17 |
| C33V | 0.301 |
| C33P | 0.117 |

| Variant | THAP1 transcriptional activity |
| --- | --- |
| C33I | 0.159 |
| C33M | 0.188 |
| C33K | 0.22 |
| C33D | 0.11 |
| C33L | 0.708 |
| E35G | 0.183 |
| E35S | 0.44 |
| E35H | 0.328 |
| E35A | 0.556 |
| E35W | 0.203 |
| E35D | 0.688 |
| E35M | 0.787 |
| E35V | 0.479 |
| E35T | 0.473 |
| E35K | 0.751 |
| E35Q | 1.42 |
| E35R | 0.909 |
| E35I | 0.451 |
| E35F | 0.223 |
| E35P | 0.243 |
| E35C | 0.317 |
| E35L | 1.18 |
| E35Y | 0.266 |
| L32R | 0.31 |

| Variant | THAP1 transcriptional activity |
| --- | --- |
| L32H | 0.17 |
| L32A | 0.175 |
| L32S | 0.21 |
| L32F | 0.14 |
| L32E | 0.135 |
| L32G | 0.156 |
| L32T | 0.295 |
| L32W | 0.161 |
| L32V | 0.794 |
| L32K | 0.267 |
| L32C | 0.199 |
| L32Q | 0.378 |
| L32N | 0.173 |
| L32I | 0.906 |
| L32Y | 0.135 |
| L32M | 0.357 |
| L32P | 0.113 |
| L32D | 0.155 |
| K24W | 0.156 |
| K24G | 0.13 |
| K24Y | 0.11 |
| K24F | 0.1 |
| K24C | 0.146 |
| K24E | 0.138 |

| Variant | THAP1 transcriptional activity |
| --- | --- |
| K24A | 0.122 |
| K24S | 0.088 |
| K24L | 0.156 |
| K24T | 0.109 |
| K24H | 0.345 |
| K24D | 0.116 |
| K24N | 0.0904 |
| K24M | 0.118 |
| K24Q | 0.0996 |
| K24R | 1.73 |
| K24V | 0.121 |
| K24I | 0.0809 |
| K24P | 0.125 |
| E37D | 0.182 |
| E37R | 0.157 |
| E37K | 0.292 |
| E37L | 1.16 |
| E37H | 0.454 |
| E37N | 0.451 |
| E37Y | 0.252 |
| E37C | 0.963 |
| E37A | 0.542 |
| E37P | 0.245 |
| E37V | 0.484 |

| Variant | THAP1 transcriptional activity |
| --- | --- |
| E37S | 0.558 |
| E37I | 0.988 |
| E37T | 0.905 |
| E37W | 0.0974 |
| E37F | 0.177 |
| E37Q | 0.337 |
| E37M | 0.792 |
| E37G | 0.195 |
| H23E | 0.123 |
| H23K | 0.125 |
| H23I | 0.0266 |
| H23M | 0.0825 |
| H23L | 0.0839 |
| H23W | 0.0807 |
| H23Q | 0.0718 |
| H23G | 0.088 |
| H23P | 0.161 |
| H23Y | 0.179 |
| H23F | 0.0843 |
| H23A | 0.116 |
| H23N | 0.0799 |
| H23C | 0.0806 |
| H23V | 0.0823 |
| H23S | 0.127 |

| Variant | THAP1 transcriptional activity |
| --- | --- |
| H23T | 0.0534 |
| H23R | 0.084 |
| H23D | 0.117 |
| P30T | 0.349 |
| P30Q | 0.583 |
| P30H | 0.384 |
| P30L | 0.261 |
| P30M | 0.245 |
| P30Y | 0.21 |
| P30C | 0.123 |
| P30I | 0.278 |
| P30V | 0.418 |
| P30F | 0.129 |
| P30E | 0.399 |
| P30R | 0.396 |
| P30K | 0.428 |
| P30W | 0.0759 |
| P30N | 0.33 |
| P30A | 0.476 |
| P30S | 0.33 |
| P30D | 0.254 |
| P30G | 0.282 |
